{
  "source": "patent US20200222532A1",
  "about": "(ARGENX, published 2020)",
  "binders": {"B1": {"name": "ARGX-110 (cusatuzumab) (antibody, V domains shown)", "VH": "EVQLVESGGGLVQPGGSLRLSCAASGFTFSVYYMNWVRQAPGKGLEWVSDINNEGGTTYYADSVKGRFTISRDNSKNSLYLQMNSLRAEDTAVYYCARDAGYSNHVPIFDSWGQGTLVTVSS", "VL": "QAVVTQEPSLTVSPGGTVTLTCGLKSGSVTSDNFPTWYQQTPGQAPRLLIYNTNTRHSGVPDRFSGSILGNKAALTITGAQADDEAEYFCALFISNPSVEFGGGTQLTVLG"}},
  "target": "T1, CD70 (human, UniProt P32970 1-193)",
  "T1 sequence (looked up)": "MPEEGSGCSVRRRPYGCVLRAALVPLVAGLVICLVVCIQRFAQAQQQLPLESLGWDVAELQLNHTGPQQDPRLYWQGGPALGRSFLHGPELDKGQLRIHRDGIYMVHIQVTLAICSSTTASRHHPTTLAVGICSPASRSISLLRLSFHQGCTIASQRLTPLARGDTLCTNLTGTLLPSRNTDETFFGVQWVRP",
  "assay": "cell-based or functional assay",
  "data": [
    {"binder": "B1", "values": [
      {"measurement": "IC50 of killing of MOLM-13 AML cells in the presence of CFSE-labelled NK cells (ratio 1:1)", "result": 0.68, "unit": "mg/L"},
      {"measurement": "IC50 of killing of MV4-11 AML cells in the presence of CFSE-labelled NK cells (ratio 1:1)", "result": 1.2, "unit": "mg/L"},
      {"measurement": "IC50 of killing of NB4 AML cells in the presence of CFSE-labelled NK cells (ratio 1:1)", "result": 0.3, "unit": "mg/L"},
      {"measurement": "IC50 of killing of NOMO-1 AML cells in the presence of CFSE-labelled NK cells (ratio 1:1)", "result": 0.14, "unit": "mg/L"}
    ]}
  ]
}
